{
  "source": "paper PMC7672443",
  "about": "“Structural basis of the XPB helicase–Bax1 nuclease complex interacting with the repair bubble DNA” (Nucleic Acids Research, 2020)",
  "key": {"StXPB;StBax1ΔC [1]": {"molecular_target": "T1, StXPB;StBax1ΔC (Sulfurisphaera tokodaii;Sulfurisphaera …, UniProt Q970I2;Q970I1 2-439;2-373, |)", "T1 sequence 1": "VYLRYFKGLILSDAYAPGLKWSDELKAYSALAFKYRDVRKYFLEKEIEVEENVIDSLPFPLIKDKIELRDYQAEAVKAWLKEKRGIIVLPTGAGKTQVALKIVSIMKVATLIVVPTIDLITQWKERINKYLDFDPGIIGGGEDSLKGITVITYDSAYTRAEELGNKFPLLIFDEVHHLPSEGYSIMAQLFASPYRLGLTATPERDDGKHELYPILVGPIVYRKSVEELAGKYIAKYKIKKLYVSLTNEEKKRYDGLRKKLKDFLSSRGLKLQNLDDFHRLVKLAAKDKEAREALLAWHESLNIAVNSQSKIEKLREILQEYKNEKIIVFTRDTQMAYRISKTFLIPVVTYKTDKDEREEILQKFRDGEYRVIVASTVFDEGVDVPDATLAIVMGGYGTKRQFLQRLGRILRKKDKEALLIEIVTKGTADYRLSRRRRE", "T1 sequence 2": "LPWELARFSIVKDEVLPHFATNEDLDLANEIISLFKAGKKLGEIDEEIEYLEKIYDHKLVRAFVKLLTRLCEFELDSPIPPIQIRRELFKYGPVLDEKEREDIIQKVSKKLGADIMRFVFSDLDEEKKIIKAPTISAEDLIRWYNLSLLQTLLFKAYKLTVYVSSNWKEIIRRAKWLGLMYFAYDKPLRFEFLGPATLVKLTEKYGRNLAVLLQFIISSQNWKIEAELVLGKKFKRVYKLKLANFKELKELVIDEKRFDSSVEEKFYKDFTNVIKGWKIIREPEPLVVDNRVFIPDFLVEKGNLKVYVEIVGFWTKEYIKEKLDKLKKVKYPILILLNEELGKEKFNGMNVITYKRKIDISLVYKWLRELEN", "assay": "EMSA; EMSA: 25 mM Tris-Cl pH 7.5, 100 mM NaCl, 5% glycerol, 1 mM DTT, room temperature 40 min; 0.8 uM forked DNA or 0.3 uM bubble DNA; 4% TBE native gel, ethidium bromide", "settings": "protein: recombinant;recombinant; tags: N-terminal His8 (PreScission; removed);none stated (pET15b; copurified with His8-XPB); copies: 1;1; fork: 22 bp duplex, 10 nt arms"}, "StXPB;StBax1": {"molecular_target": "T2, StXPB;StBax1 (Sulfurisphaera tokodaii;Sulfurisphaera …, UniProt Q970I2;Q970I1 2-439;1-481, |)", "T2 sequence 1": "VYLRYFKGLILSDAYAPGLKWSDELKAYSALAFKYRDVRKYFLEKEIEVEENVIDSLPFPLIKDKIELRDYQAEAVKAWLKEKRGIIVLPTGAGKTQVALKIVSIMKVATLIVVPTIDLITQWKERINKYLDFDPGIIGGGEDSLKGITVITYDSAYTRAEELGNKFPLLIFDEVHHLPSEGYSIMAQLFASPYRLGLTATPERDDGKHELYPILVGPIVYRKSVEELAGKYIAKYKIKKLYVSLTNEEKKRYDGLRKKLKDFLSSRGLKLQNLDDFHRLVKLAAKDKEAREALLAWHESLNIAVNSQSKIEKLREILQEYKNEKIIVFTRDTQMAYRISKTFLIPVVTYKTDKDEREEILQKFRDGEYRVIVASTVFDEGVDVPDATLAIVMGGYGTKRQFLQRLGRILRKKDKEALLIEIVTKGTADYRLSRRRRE", "T2 sequence 2": "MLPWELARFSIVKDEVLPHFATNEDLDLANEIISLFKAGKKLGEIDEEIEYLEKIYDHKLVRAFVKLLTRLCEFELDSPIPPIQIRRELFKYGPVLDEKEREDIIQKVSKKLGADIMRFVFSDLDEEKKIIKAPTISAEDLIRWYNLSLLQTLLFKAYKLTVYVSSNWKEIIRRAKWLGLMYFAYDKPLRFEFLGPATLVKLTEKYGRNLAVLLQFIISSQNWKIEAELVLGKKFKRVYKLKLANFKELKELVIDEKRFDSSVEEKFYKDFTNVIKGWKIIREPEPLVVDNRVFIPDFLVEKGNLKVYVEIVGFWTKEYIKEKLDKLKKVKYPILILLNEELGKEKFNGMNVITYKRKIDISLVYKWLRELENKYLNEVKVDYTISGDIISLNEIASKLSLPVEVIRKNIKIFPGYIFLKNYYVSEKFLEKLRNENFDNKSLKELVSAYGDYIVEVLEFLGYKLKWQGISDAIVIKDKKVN", "assay": "EMSA; EMSA: 25 mM Tris-Cl pH 7.5, 100 mM NaCl, 5% glycerol, 1 mM DTT, room temperature 40 min; 0.8 uM forked DNA or 0.3 uM bubble DNA; 4% TBE native gel, ethidium bromide", "settings": "protein: recombinant;recombinant; tags: N-terminal His8 (PreScission; removed);; copies: 1;1; fork: 22 bp duplex, 10 nt arms"}, "[2]": {"molecular_target": "human XPB;human p52;human p8;human XPA (human;human;human;human, UniProt P19447;Q92759;Q6ZYL4;P23025 1-782;1-462;1-71;1-273, |||)", "sequence (P19447 whole entry, chain 1 of 4)": "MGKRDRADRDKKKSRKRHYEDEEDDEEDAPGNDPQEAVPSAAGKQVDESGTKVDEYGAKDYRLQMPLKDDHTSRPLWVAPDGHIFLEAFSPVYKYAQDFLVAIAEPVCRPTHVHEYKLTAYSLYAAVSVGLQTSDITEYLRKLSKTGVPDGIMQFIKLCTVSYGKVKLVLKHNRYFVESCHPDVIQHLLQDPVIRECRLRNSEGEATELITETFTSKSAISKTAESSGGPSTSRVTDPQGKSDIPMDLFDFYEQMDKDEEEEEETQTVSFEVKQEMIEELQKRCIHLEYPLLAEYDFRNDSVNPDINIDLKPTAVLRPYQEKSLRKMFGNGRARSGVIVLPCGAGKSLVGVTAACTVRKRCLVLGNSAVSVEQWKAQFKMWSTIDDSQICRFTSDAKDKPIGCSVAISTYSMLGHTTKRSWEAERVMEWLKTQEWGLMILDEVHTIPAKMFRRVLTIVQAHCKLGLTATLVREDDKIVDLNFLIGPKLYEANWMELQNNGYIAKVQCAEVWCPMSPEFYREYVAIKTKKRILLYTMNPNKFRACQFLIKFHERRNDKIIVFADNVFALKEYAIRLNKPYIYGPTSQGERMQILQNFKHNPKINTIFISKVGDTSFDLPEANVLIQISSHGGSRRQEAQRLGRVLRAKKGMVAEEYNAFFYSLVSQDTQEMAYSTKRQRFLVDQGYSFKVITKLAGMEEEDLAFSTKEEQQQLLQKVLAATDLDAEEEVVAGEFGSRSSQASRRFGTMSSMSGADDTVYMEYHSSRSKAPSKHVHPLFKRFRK", "sequence (Q92759 whole entry, chain 2 of 4)": "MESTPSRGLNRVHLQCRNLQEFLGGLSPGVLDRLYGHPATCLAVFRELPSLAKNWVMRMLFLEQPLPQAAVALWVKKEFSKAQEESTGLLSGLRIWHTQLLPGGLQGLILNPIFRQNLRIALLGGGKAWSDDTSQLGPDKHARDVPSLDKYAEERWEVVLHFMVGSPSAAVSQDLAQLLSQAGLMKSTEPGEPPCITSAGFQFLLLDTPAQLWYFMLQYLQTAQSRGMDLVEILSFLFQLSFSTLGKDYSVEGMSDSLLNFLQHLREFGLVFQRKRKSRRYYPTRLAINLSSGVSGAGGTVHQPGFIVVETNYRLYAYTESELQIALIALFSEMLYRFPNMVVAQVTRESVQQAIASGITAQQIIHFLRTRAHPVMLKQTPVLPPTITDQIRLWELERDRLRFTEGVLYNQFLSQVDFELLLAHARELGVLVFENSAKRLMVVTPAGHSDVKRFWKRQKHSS", "sequence (Q6ZYL4 whole entry, chain 3 of 4)": "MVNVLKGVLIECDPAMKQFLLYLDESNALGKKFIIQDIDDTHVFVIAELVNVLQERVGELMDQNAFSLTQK", "sequence (P23025 whole entry, chain 4 of 4)": "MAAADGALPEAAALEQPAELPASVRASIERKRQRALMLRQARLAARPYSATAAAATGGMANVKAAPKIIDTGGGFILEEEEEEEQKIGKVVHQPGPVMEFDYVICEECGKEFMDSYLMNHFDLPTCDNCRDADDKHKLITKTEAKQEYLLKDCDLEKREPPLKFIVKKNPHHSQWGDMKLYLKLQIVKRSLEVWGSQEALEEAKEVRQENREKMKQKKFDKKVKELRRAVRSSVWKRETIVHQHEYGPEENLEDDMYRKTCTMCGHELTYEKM", "assay": "EMSA; stable complex; EMSA: 25 mM Tris-Cl pH 7.5, 100 mM NaCl, 5% glycerol, 1 mM DTT, room temperature 40 min; 0.8 uM forked DNA or 0.3 uM bubble DNA; 4% TBE native gel, ethidium bromide", "settings": "protein: recombinant;recombinant;recombinant;recombinant; tags: N-terminal His6 (PreScission; removed);;;N-terminal His6-SUMO (removed); copies: 1;1;1;1; fork: 22 bp duplex, 10 nt arms"}, "StXPB F278A": {"molecular_target": "T3, StXPB F278A (Sulfurisphaera tokodaii, UniProt Q970I2 2-439, F278A)", "T3 sequence": "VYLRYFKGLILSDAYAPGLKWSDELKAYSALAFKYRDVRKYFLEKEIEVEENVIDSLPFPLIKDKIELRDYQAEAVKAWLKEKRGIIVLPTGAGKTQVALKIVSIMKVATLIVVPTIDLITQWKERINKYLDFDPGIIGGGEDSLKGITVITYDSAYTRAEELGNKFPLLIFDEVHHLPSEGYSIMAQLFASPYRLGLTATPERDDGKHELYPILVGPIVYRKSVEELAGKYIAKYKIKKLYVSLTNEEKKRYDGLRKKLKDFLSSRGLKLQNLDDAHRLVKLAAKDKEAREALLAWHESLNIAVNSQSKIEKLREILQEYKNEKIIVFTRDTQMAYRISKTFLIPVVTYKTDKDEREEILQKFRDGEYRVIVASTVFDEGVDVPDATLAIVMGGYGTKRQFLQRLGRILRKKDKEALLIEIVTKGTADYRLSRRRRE", "assay": "EMSA; no noticeable effect versus WT; EMSA: 25 mM Tris-Cl pH 7.5, 100 mM NaCl, 5% glycerol, 1 mM DTT, room temperature 40 min; 0.8 uM forked DNA or 0.3 uM bubble DNA; 4% TBE native gel, ethidium bromide", "settings": "protein: recombinant; tags: N-terminal His8 (removed); 32 nt strands, blunt, internal 5 nt T:T mismatch bubble"}, "StXPB;StBax1ΔC [3]": {"molecular_target": "T1, StXPB;StBax1ΔC", "assay": "crystal structure 3.55 Å; 10 mM MgCl2, MES pH 5.3, MPD; ATP-free; EMSA: 25 mM Tris-Cl pH 7.5, 100 mM NaCl, 5% glycerol, 1 mM DTT, room temperature 40 min; 0.8 uM forked DNA or 0.3 uM bubble DNA; 4% TBE native gel, ethidium bromide", "settings": "protein: recombinant;recombinant; tags: N-terminal His8 (PreScission; removed);none stated (pET15b; copurified with His8-XPB); copies: 1;1; 24 bp with 6 nt unpaired region; 6 bp short arm unwound in crystal"}},
  "data": [
    {"binder": "forked DNA (dsDNA) DNA 1: TAGTCACAGCTGATTGCGCTCTGCTCCATAGT DNA 2: TGATACTTCGAGAGCGCAATCAGCTGTGACTA", "values": [
      {"measurement": "binding result", "setting": "StXPB;StBax1ΔC [1]", "result": "binds"},
      {"measurement": "binding result", "setting": "StXPB;StBax1", "result": "binds"},
      {"measurement": "binding result", "setting": "[2]", "result": "binds"}
    ]},
    {"binder": "bubble-5 DNA (dsDNA) DNA 1: TAGTCACAGCTGATTTTTCTCTGCTCCATAGT DNA 2: ACTATGGAGCAGAGTTTTTTCAGCTGTGACTA", "values": [
      {"measurement": "binding result", "setting": "StXPB F278A", "result": "binds"}
    ]},
    {"binder": "bubble-6 DNA (crystal) (dsDNA) DNA 1: TTGACTCAACATCCTTTGCTACAA DNA 2: ATTGTAGGTTTCCATGTTGAGTCA", "values": [
      {"measurement": "binding result", "setting": "StXPB;StBax1ΔC [3]", "result": "binds"}
    ]}
  ]
}
